Experimental data as given in US20090175866A1, “TREATMENT OF B-CELL MALIGNANCIES” (priority 2004, published 2009).

How the values were obtained:
WT FGFR3 = target: T1, WT FGFR3 (Homo sapiens, UniProt P22607); experiment: Flow cytometry binding of PRO-001 Fab to B9-FGFR3^WT cells, with or without FGF
T1 construct: expressed in transfected cells; host or cells: B9 cells
Excerpt: FIG. 1A is a flow cytometry chart showing B9-FGFR WT (wild type) cells fluorescently labeled with PRO 001 followed by a PE-conjugated anti-human secondary antibody. The filled histogram indicates parental B9 cells (lacking FGFR3 expression); the dotted light line, B9-FGFR WT without aFGF; the solid dark line, B9-WT in the presence of aFGF. The Y axis represents counts indicating the amount of cells. The X axis represents fluorescence intensity.
Cells (5×10^5) were washed in cold phosphate-buffered saline (PBS) and then incubated for 30 minutes with one of the following: PRO-001 Fab or a human Fab control antibody, rabbit anti-FGFR3 (100) or rabbit preimmune serum in PBS. The cells were then stained with PE-conjugated goat antihuman F(ab′)2 secondary antibody or goat anti-rabbit IgG-PE for 30 minutes on ice. Flow cytometry was performed on a FACSCaliber flow cytometer (BD Biosciences, San Jose, Calif.) and analyzed using Cellquest software (Becton Dickinson). To assess the ability of FGF ligand to compete for binding, cells were incubated in the presence or absence of 30 ng/ml FGF and 5 μg/ml heparin for 30 minutes and then stained with PRO-001 Fab as describe above.
The human anti-FGFR3 Fab PRO-001 was isolated from the Hu-CAL®-Fab-1 human combinatorial library using a differential whole cell panning approach (Rauchenberger R, et al. J Biol. Chem. 2003; 278:38194-205). […]

FDCP-FGFR3^S249C cells = experiment: FDCP-FGFR3^S249C xenograft tumor model in nude mice; type: in vivo; details: PRO-001 Fab I.P.
Description: FIG. 8B is a graph showing the effect of PRO-001 on an FGFR3-driven xenograft tumor model. Nude mice (3 in each group), were injected S.C. at 2 locations, one on each flank (a—right flank, b—left flank), with 2×10^6 FDCP-FGFR3^S249C cells each. A week later, mice were randomized to receive PRO-001 by I.P. injection according to the schedule described in Table I or PBS as control. Tumor volume was estimated from measurements in 3 dimensions at 22 or 29 days post cell injection.
FDCP-FGFP3^S249C cells were washed 3 times in PBS then resuspended at 2×10^6 cells/200 μl PBS. The cells were injected subcutaneously (S.C.) to CD1 nude adult females (Harlan, Laboratories, Israel) with a 25 G needle at one or both mouse flanks. Treatment was initiated one week post cell inoculation at which time mice were randomized to receive PRO-001 or an equal volume of PBS alone. Dosing was preformed twice weekly by intraperitoneal (I.P.) injection for 3 weeks. Mice were followed every 2-4 days and developing tumors were measured at 3 dimensions using a caliper. Tumor volume was estimated by multiplying these 3 values.
Nude mice were injected subcutaneously at 2 locations; one on each flank, with 2×10^6 FDCP-FGFR3^S249C cells each. One week post cell injection, mice were treated with PRO-001 Fab. […]

KMS18 (FGFR3-G384D) = experiment: Viability of KMS18 myeloma cells; type: cell-based, human; details: cells grow independent of FGF
Description: Non-transformed rat chondrocyte cell line expressing PGFR3 in an inducible manner (RCJ-FGFR3) has been described previously (Rauchenberger R. et al. J. Biol. Chem. 2003; 278:38194-205). Cells were maintained in α-Minimum Essential Media supplemented with 15% fetal calf serum (FCS), 2 mM L-Glutamine, 100 U/ml penicillin, 100 μg/ml streptomycin, 600 μg/ml G418 (Gibco BRL, Ontario, Canada), 2 μg/ml Tetracyclin (Sigma, Ontario, Canada), and 50 μg/ml HygromycinB (Gibco BRL). FGFR3 expression was induced by removal of tetracyclin and serum starvation. […]
Cell viability was assessed by 3-(4,5-dimethylthiazol)-2,5-diphenyl tetrazolium (MTT) or (2,3-bis(2-methoxy-4-nitro-5-sulphophenyl)-5-[(phenylamino) carbonyl]-2H-tetrazolium hydroxide (XTT) dye absorbance where indicated. Cells were seeded in 96-well plates at a density of 20,000 (FDCP-1 cells), 5,000 (B9 cells) or 25,000 cells (MM cell lines) per well in culture medium. Cells were incubated in the absence or presence of one of the following cytokines: 10 ng/ml FGF9 and 5 μg/ml heparin, 1% murine IL-6, 50 ng/ml IGF-1 or 50 ng/ml human IL-6 where indicated and increasing concentrations of PRO-001, control antibody (purified human Fab) or 100 nM PD173074. […]

T1 sequence (P22607 23-806): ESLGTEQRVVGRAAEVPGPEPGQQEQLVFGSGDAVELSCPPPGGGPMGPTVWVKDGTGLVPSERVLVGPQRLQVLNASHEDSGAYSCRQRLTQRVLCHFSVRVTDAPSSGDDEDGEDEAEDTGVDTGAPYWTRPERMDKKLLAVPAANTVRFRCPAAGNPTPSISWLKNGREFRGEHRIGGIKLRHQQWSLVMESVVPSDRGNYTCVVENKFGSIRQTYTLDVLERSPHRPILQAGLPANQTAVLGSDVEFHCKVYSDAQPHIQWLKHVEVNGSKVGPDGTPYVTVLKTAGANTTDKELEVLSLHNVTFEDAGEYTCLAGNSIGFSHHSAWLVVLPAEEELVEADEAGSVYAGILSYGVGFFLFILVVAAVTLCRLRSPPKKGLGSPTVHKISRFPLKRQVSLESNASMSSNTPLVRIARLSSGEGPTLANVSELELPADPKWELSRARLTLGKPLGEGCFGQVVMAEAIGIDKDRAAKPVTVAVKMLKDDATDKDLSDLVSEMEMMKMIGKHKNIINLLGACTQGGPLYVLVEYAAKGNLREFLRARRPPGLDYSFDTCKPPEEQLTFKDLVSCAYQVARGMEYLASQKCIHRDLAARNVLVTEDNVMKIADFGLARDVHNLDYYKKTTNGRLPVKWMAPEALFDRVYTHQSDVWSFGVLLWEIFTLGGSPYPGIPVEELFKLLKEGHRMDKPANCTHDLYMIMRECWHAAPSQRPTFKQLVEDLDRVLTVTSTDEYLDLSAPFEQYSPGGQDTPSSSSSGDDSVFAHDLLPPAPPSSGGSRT

B1: PRO-001: human anti-FGFR3 Fab from HuCAL library; VH-CDR3 SEQ ID NO:1, VL-CDR3 SEQ ID NO:10; VH SEQ ID NO:19, VL SEQ ID NO:28 (antibody, V domains shown)
VH: QVQLQQSGPGLVKPSQTLSLTCAISGDSVSSNSAAWNWIRQSPGRGLEWLGRTYYRSKWYNDYAVSVKSRITINPDTSKNQFSLQLNSVTPEDTAVYYCARSYYPDFDYWGQGTLVTVSS
VL: DIELTQPPSVSVAPGQTARISCSGDALGDKYASWYQQKPGQAPVLVIYDDSDRPSGIPERFSGSNSGNTATLTISGTQAEDEADYYCQSYDGPDLWVFGGGTKLTVLGQ
Binding to B9-FGFR3^WT cells on addition of FGF (WT FGFR3; 30 ng/ml FGF and 5 μg/ml heparin): can be reduced by addition of FGF | Binding to WT FGFR3 (FACS) (WT FGFR3; PRO-001 Fab, B9-FGFR3^WT cells): binds to WT FGFR3 | Tumor growth relative to control mice (FDCP-FGFR3^S249C cells; four weeks post cell injection, 400-275 μg per dose): 10% | Toxicities and weight loss over the treatment period (FDCP-FGFR3^S249C cells; nude mice): No major toxicities or significant weight loss | Viability of KMS18 (FGFR3-G384D) (KMS18 (FGFR3-G384D)): failed to inhibit the viability
